{
  "source": "patent US20110046075A1",
  "about": "(published 2011)",
  "binders": {"B1": {"name": "Efb-C, C-terminal C3-binding domain of Efb from S. aureus strain Mu50 (other)", "chain": "FNKPAAKTDATIKKEQKLIQAQNLVREFEKTHTVSAHRKAQKAVNLVSFEYKVKKMVLQERIDNVLKQGLVR", "notes": "Monomer in solution; also called wild-type Efb-C"}, "B2": {"name": "Extracellular fibrinogen-binding protein (Efb), recombinant full-length, S. aureus strain Mu50 (other)", "chain": "ASEGYGPREKKPVSINHNIVEYNDGTFKYQSRPKFNSTPKYIKFKHDYNILEFNDGTFEYGARPQFNKPAAKTDATIKKEQKLIQAQNLVREFEKTHTVSAHRKAQKAVNLVSFEYKVKKMVLQERIDNVLKQGLVR"}, "B3": {"name": "SAV1155/Ehp (Efb Homologous Protein), recombinant mature form, S. aureus strain Mu50 (other)", "chain": "QTKNVEAAKKYDQYQTNFKKQVNKKVVDAQKAVNLFKRTRTVATHRKAQRAVNLIHFQHSYEKKKLQRQIDLVLKYNTLK", "notes": "A recombinant form corresponding to the predicted mature protein"}},
  "key": {"[1]": {"target": "T1, Native complement component C3, purified from human plasma (human, UniProt P01024 23-1663, intact thioester (native form))", "T1 sequence (P01024 23-1663)": "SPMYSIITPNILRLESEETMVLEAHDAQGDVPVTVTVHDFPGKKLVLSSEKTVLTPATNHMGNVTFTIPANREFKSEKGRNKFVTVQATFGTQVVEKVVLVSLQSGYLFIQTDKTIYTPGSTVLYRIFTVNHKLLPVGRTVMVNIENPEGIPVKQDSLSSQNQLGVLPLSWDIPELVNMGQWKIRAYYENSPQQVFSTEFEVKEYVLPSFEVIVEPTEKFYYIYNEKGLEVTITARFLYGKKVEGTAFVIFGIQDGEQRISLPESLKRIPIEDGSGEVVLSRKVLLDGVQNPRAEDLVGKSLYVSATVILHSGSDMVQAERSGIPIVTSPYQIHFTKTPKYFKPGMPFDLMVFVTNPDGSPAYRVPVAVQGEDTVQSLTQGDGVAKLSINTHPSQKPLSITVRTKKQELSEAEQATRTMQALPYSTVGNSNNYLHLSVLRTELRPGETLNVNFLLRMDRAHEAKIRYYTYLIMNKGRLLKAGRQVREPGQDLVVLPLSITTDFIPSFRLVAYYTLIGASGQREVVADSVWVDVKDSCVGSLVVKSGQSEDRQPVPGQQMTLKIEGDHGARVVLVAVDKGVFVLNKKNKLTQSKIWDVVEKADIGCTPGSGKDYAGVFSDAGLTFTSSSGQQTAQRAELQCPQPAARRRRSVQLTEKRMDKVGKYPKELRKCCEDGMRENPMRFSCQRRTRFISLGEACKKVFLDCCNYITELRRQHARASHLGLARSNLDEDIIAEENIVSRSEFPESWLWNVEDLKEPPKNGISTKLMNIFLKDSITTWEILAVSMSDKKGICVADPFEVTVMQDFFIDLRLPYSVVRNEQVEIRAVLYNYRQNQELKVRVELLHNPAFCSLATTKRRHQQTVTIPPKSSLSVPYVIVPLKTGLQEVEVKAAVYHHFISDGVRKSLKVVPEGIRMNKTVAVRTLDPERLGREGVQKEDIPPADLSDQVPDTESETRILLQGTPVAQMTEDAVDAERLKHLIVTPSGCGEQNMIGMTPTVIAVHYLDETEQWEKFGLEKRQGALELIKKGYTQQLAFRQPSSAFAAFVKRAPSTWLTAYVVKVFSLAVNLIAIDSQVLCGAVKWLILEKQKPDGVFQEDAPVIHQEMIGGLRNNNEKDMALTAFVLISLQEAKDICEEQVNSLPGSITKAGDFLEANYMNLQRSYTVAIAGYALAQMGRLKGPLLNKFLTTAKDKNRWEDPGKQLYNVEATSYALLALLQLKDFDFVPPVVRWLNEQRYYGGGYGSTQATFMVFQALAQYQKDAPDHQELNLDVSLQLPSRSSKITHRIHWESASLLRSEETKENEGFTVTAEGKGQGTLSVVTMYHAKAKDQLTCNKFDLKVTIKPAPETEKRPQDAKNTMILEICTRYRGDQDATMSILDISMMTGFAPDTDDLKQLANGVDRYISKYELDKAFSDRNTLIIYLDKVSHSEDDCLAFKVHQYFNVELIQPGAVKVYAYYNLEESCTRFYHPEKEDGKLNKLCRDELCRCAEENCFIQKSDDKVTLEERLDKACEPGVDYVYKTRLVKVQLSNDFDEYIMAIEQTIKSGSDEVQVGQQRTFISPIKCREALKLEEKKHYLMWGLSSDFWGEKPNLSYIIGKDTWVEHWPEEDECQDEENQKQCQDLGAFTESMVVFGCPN", "assay": "cell-based or functional assay"}, "Hydrolyzed C3 (C3(H2O)) [2]": {"target": "T2, Hydrolyzed C3 (C3(H2O)) (human, UniProt P01024 23-1663, thioester hydrolyzed)", "T2 construct": "mature; Prepared according to established protocols", "T2 sequence (P01024 23-1663)": "as above", "assay": "SPR kinetics, Efb-C immobilized"}, "C3b [3]": {"target": "T3, C3b (human, UniProt P01024 23-667; P01024 749-1663, limits assumed)", "T3 construct": "domain: C3b; Prepared according to established protocols", "T3 sequence (P01024 23-667 limits assumed, chain 1 of 2)": "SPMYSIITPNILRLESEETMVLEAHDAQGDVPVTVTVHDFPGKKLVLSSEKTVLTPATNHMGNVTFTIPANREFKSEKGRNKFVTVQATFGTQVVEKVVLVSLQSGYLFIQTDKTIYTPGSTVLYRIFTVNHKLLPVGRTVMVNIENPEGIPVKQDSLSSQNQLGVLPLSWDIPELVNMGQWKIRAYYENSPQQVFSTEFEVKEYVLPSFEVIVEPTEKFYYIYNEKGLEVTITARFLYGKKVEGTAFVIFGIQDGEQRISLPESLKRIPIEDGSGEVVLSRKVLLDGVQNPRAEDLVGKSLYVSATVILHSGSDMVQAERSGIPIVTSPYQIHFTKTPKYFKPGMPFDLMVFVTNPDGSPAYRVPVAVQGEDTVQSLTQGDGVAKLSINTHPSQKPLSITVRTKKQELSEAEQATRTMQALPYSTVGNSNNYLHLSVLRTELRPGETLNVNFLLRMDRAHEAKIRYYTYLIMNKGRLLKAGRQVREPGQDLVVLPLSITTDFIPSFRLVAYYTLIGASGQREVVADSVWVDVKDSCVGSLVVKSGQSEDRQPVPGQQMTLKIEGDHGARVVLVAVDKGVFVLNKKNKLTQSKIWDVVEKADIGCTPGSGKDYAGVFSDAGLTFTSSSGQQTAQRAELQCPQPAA", "T3 sequence (P01024 749-1663 limits assumed, chain 2 of 2)": "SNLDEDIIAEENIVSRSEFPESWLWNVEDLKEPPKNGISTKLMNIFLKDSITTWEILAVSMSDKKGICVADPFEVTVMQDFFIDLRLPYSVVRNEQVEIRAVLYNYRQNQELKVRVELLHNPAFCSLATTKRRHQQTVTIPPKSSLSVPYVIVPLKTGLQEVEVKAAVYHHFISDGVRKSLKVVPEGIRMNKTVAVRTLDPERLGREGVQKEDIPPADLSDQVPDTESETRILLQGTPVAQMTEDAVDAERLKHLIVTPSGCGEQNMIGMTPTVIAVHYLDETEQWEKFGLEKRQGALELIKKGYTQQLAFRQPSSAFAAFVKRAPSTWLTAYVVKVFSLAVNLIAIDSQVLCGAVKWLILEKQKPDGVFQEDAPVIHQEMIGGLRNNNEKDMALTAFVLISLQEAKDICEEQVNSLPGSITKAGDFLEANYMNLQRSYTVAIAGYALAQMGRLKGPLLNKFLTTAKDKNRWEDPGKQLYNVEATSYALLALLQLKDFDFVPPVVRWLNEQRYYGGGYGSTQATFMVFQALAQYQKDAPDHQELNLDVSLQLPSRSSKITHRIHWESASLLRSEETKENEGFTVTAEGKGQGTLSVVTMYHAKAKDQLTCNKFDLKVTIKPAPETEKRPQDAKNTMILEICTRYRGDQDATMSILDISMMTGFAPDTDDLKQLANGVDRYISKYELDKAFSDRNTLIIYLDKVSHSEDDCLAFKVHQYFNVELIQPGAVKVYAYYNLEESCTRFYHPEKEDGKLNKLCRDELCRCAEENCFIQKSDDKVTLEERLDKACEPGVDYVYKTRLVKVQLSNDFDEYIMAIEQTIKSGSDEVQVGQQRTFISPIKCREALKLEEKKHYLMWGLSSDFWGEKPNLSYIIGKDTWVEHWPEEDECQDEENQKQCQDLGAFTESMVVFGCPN", "assay": "SPR kinetics, Efb-C immobilized"}, "C3c": {"target": "T4, C3c (human, UniProt P01024 23-667; P01024 749-954; P01024 1321-1663)", "T4 construct": "domain: C3c; Prepared according to established protocols; also called C3c fragment", "T4 sequence (P01024 23-667 limits assumed, chain 1 of 3)": "as the sequence (P01024 23-667 limits assumed, chain 1 of 2) above", "T4 sequence (P01024 749-954 limits assumed, chain 2 of 3)": "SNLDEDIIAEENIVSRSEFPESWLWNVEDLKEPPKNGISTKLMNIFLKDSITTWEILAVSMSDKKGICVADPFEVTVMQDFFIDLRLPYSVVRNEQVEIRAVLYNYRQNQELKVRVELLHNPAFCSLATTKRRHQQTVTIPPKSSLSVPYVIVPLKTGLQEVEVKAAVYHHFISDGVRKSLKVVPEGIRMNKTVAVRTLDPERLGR", "T4 sequence (P01024 1321-1663 limits assumed, chain 3 of 3)": "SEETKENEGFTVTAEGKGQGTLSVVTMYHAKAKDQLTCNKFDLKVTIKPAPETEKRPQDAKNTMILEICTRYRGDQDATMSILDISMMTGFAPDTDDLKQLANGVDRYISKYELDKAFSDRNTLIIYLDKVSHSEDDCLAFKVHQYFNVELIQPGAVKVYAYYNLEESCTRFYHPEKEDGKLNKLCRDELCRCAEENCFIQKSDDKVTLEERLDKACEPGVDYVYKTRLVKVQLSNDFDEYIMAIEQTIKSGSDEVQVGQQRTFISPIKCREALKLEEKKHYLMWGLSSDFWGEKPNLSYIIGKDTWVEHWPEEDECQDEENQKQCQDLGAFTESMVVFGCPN", "assay": "SPR, Efb-C immobilized, C3c injected, response divided by MW"}, "[4]": {"target": "T5, Fibrinogen (Fg) from human serum (human, UniProt P02671 20-644; P02675 31-491; P02679 27-437)", "T5 construct": "The three-chain make-up is from general knowledge; also called Fg species", "T5 sequence 1": "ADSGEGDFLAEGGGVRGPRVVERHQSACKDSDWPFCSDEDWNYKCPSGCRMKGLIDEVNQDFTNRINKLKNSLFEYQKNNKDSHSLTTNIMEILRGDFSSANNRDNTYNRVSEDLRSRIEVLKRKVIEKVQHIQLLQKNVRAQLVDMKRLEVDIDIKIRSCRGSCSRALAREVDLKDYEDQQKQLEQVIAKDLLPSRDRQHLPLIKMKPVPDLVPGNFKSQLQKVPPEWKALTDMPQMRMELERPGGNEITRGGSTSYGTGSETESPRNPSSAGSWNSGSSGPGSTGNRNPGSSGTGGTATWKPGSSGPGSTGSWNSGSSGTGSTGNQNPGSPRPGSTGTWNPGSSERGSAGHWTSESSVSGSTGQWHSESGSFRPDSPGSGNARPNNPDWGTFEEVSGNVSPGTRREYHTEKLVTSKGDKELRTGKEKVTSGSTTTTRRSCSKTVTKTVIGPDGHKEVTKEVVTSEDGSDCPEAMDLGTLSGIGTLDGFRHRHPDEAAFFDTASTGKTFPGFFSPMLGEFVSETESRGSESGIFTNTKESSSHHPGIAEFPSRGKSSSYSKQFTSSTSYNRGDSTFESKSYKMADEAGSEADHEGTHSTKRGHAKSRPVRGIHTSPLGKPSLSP", "T5 sequence 2": "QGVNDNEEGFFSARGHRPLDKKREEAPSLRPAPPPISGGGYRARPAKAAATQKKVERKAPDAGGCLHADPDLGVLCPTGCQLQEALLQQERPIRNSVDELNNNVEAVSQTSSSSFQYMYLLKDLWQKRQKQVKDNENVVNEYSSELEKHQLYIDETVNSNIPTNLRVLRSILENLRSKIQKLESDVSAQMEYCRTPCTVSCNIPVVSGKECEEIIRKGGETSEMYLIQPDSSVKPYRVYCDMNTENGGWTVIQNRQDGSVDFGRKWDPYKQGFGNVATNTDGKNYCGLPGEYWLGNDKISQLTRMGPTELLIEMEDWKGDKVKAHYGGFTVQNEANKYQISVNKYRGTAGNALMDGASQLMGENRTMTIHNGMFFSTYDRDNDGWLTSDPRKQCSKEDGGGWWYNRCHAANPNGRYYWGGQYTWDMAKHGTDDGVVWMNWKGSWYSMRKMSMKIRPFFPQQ", "T5 sequence 3": "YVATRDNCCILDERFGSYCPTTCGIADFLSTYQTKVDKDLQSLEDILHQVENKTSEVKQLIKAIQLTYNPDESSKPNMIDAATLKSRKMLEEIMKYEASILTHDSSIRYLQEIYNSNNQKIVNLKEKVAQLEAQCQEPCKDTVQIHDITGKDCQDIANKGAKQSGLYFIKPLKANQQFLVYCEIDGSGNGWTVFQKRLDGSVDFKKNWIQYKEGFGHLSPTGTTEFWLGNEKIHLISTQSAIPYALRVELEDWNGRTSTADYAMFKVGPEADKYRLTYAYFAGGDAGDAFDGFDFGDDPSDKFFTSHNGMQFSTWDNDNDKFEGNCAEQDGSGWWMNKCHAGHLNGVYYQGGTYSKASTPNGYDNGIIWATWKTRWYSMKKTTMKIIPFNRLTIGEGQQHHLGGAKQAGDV", "assay": "pull-down from human serum on derivatized sepharose, SDS-PAGE and LC-MS/MS"}, "C3b [5]": {"target": "T3, C3b", "assay": "SPR (Biacore 2000), Efb-C immobilized, C3b as analyte, 1:1 Langmuir model", "procedure": "(§1) Surface Plasmon Resonance of Efb Binding to Components of the Complement System. All SPR experiments were performed on a Biacore X (ranking) or Biacore 2000 (kinetic profiling) biosensor at 25° C. using 10 mM PBS-T (10 mM sodium phosphate, pH 7.4, 150 mM NaCl, 0.005% Tween-20) as running buffer. […] A separate flow cell was only activated and deactivated, and served as reference surface. 200 nM solutions of the C3 fragments were injected for 3 min at a flow rate of 20 μl/min with a dissociation phase of 3 min. The Efb-C surface was regenerated with two consecutive 30 s pulses of 0.1% SDS and re-equilibrated in running buffer for 10 min. For the kinetic SPR studies, Efb-C was immobilized at lower density (200 RU) and the flow rate was kept at 30 μl/ml in order to avoid mass transport effects. C3 fragments were screened as threefold dilution series (67-0.09 nM; 200-0.09 nM for C3b) in running buffer with injection and dissociation phases of 5 and 10 min, respectively. In order to ensure full reconstitution of the surface after regeneration, the equilibration phase was increased to 30 min. Three buffer blanks were included in each analysis and their average signals were subtracted from the processed sample responses (double referencing). […] The equilibrium dissociation constant (Kd) was calculated from the kinetic parameters as Kd=koff/kₒₙ. […]"}, "[6]": {"target": "T6, Recombinant C3dg (E. coli, pET30 vector with S-tag) (human, UniProt P01024 955-1303)", "T6 construct": "domain: C3dg; not shown: S-tag from the pET30 vector", "T6 sequence (P01024 955-1303)": "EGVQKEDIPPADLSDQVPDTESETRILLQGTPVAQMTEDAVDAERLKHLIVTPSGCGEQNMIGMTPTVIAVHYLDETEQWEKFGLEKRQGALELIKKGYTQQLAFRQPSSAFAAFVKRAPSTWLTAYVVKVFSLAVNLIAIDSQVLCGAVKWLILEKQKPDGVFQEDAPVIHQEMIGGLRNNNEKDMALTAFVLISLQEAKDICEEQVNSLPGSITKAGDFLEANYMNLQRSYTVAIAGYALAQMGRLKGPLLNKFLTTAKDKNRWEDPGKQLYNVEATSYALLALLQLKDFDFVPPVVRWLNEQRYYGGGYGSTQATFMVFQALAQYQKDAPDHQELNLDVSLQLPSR", "assay": "SPR (Biacore 2000), Efb-C immobilized, C3dg as analyte, 1:1 Langmuir model"}, "Hydrolyzed C3 (C3(H2O)) [7]": {"target": "T2, Hydrolyzed C3 (C3(H2O))", "assay": "SPR (Biacore 2000), Efb-C immobilized, C3(H2O) as analyte, 1:1 Langmuir model", "procedure": "as §1"}, "C3b [8]": {"target": "T3, C3b", "assay": "SPR (Biacore 2000), Efb-C immobilized, C3b as analyte, 1:1 Langmuir model; Kd=koff/kon"}, "[9]": {"target": "T6, Recombinant C3dg (E. coli, pET30 vector …)", "assay": "SPR (Biacore 2000), Efb-C immobilized, C3dg as analyte, 1:1 Langmuir model; Kd=koff/kon"}, "Hydrolyzed C3 (C3(H2O)) [10]": {"target": "T2, Hydrolyzed C3 (C3(H2O))", "assay": "SPR (Biacore 2000), Efb-C immobilized, C3(H2O) as analyte, 1:1 Langmuir model; Kd=koff/kon"}, "[11]": {"target": "T1, Native complement component C3, …", "assay": "SPR (Biacore 2000), Efb-C immobilized, native C3 as analyte, surface heterogeneity model, primary site; Kd=koff/kon"}, "[12]": {"target": "T1, Native complement component C3, …", "assay": "SPR (Biacore 2000), Efb-C immobilized, native C3 as analyte, surface heterogeneity model, primary site (~90% of the total binding)"}},
  "data": [
    {"binder": "B1", "values": [
      {"measurement": "IC50, inhibition of the alternative pathway of complement activation (ELISA of C3b deposition, human serum)", "setting": "[1]", "result": "~410", "unit": "nM"},
      {"measurement": "dissociation rate relative to that of native C3", "setting": "Hydrolyzed C3 (C3(H2O)) [2]", "result": "> 70", "unit": "% greater"},
      {"measurement": "fold decrease in affinity compared to native C3 and C3(H2O)", "setting": "C3b [3]", "result": "~3", "unit": "fold"},
      {"measurement": "fold difference in affinity to C3dg", "setting": "C3b [3]", "result": "~10", "unit": "fold"},
      {"measurement": "binding result", "setting": "C3c", "result": "no binding (tested: 200 nM)"},
      {"measurement": "binding result", "setting": "[4]", "result": "no binding (tested: 1:100 dilution of human serum)"},
      {"measurement": "koff", "setting": "C3b [5]", "result": 0.000209, "unit": "s⁻¹"},
      {"measurement": "kon", "setting": "C3b [5]", "result": 23900, "unit": "M⁻¹ s⁻¹"},
      {"measurement": "koff", "setting": "[6]", "result": 0.000218, "unit": "s⁻¹"},
      {"measurement": "kon", "setting": "[6]", "result": 284000, "unit": "M⁻¹ s⁻¹"},
      {"measurement": "koff", "setting": "Hydrolyzed C3 (C3(H2O)) [7]", "result": 0.000169, "unit": "s⁻¹"},
      {"measurement": "kon", "setting": "Hydrolyzed C3 (C3(H2O)) [7]", "result": 88900, "unit": "M⁻¹ s⁻¹"},
      {"measurement": "Kd", "setting": "C3b [8]", "result": 8.8, "unit": "nM"},
      {"measurement": "Kd", "setting": "[9]", "result": 0.8, "unit": "nM"},
      {"measurement": "Kd", "setting": "Hydrolyzed C3 (C3(H2O)) [10]", "result": 1.9, "unit": "nM"},
      {"measurement": "Kd", "setting": "[11]", "result": 2.8, "unit": "nM"},
      {"measurement": "koff", "setting": "[12]", "result": "9.9e-05", "unit": "s⁻¹"},
      {"measurement": "kon", "setting": "[12]", "result": 36000, "unit": "M⁻¹ s⁻¹"}
    ]},
    {"binder": "B2", "values": [
      {"measurement": "IC50, inhibition of the alternative pathway of complement activation (ELISA of C3b deposition, human serum)", "setting": "[1]", "result": "~560", "unit": "nM"},
      {"measurement": "molar excess over C3 needed to reach an IC50 concentration, classical pathway", "setting": "[1]", "result": 50, "unit": "fold molar excess over C3"}
    ]},
    {"binder": "B3", "values": [
      {"measurement": "IC50, inhibition of classical activation of the complement pathway (ELISA detecting fixed C3b to Ag-Ab complex)", "setting": "[1]", "result": 590, "unit": "nM"},
      {"measurement": "classical pathway inhibition relative to Efb, on a molar basis", "setting": "[1]", "result": "~2", "unit": "fold"},
      {"measurement": "classical pathway inhibition relative to Efb-C, on a molar basis", "setting": "[1]", "result": "~50", "unit": "fold"},
      {"measurement": "binding result", "setting": "[4]", "result": "no binding (tested: 1:100 dilution of human serum)"}
    ]}
  ]
}
